Experiment [1] addresses IgE on basophils of ragweed allergic patients. Put plainly: cell-based or functional assay.
Experiment [2] has as its target Amb a 1 specific IgE (in serum). Put plainly: competition ELISA: soluble competitor pre-incubated with serum, IgE binding to plate-coated Amb a 1.
Experiment [3] shares this target. The experiment can be described thus: competition ELISA, ratio against soluble Amb a 1 as reference.
Experiment [4] shares this target. The experiment can be described thus: competition ELISA: soluble competitor pre-incubated with serum, IgE binding to plate-coated Amb a 1; two lots gave the same value.

B1: ragweed allergen Amb a 1 (protein, UniProt P27759 26-396, looked up)
chain: AEDLQEILPVNETRRLTTSGAYNIIDGCWRGKADWAENRKALADCAQGFGKGTVGGKDGDIYTVTSELDDDVANPKEGTLRFGAAQNRPLWIIFERDMVIRLDKEMVVNSDKTIDGRGAKVEIINAGFTLNGVKNVIIHNINMHDVKVNPGGLIKSNDGPAAPRAGSDGDAISISGSSQIWIDHCSLSKSVDGLVDAKLGTTRLTVSNSLFTQHQFVLLFGAGDENIEDRGMLATVAFNTFTDNVDQRMPRCRHGFFQVVNNNYDKWGSYAIGGSASPTILSQGNRFCAPDERSKKNVLGRHGEAAAESMKWNWRTNKDVLENGAIFVASGVDPVLTPEQSAGMIPAEPGESALSLTSSAGVLSCQPGAPC
In experiment [1], B1 returned an HR40 (concentration required to induce 40% histamine release), patient four of 0.0003 µg/mL; an HR40 (concentration required to induce 40% histamine release), patient one of 0.0002 µg/mL; an HR40 (concentration required to induce 40% histamine release), patient three of 0.0003 µg/mL; an HR40 (concentration required to induce 40% histamine release), patient two of 0.0002 µg/mL. In experiment [1], this molecule gave an HR40, mean of four patients of 0.0003 µg/mL. In experiment [2], this molecule had a half-inhibitory concentration (IC50) of 0.04 µg/mL.

B2: AIC-H (covalent conjugate of Amb a 1 and ISS-containing polynucleotide SEQ ID NO:1, high extent of conjugation) (protein, ragweed, UniProt P27759 26-396, looked up)
chain: B1 chain
modifications: average of >5.5 oligonucleotides (5' thio ISS oligonucleotide, SEQ ID NO:1) per Amb a 1 molecule, linked through the heterobifunctional linker sSMCC; Amb a 1 blocked with N-ethyl maleimide before activation
In experiment [1], B2 displayed an HR40 (concentration required to induce 40% histamine release), patient four of over 1 µg/mL; an HR40 (concentration required to induce 40% histamine release), patient one of 0.5 µg/mL; an HR40 (concentration required to induce 40% histamine release), patient three of over 0.1 µg/mL; an HR40 (concentration required to induce 40% histamine release), patient two of over 0.1 µg/mL. In addition, in experiment [1], the HR40, mean of four patients was over 0.425 µg/mL and the Ratio AIC:Amb a 1 of HR40 was over 1420 fold. Moreover, the ratio of AIC-H to Amb a 1 for 50% inhibition in experiment [3] stood at 4.75. Moreover, the half-inhibitory concentration (IC50) in experiment [4] was 0.19 µg/mL.

B3: AIC-L (covalent conjugate of Amb a 1 and ISS-containing polynucleotide SEQ ID NO:1, low extent of conjugation) (protein, ragweed, UniProt P27759 26-396, looked up)
chain: B1 chain
modifications: average of 2-3 oligonucleotides (5' thio ISS oligonucleotide, SEQ ID NO:1) per Amb a 1 molecule, linked through the heterobifunctional linker sSMCC; Amb a 1 blocked with N-ethyl maleimide before activation
In experiment [1], B3 returned an HR40 (concentration required to induce 40% histamine release), patient four of 0.026 µg/mL; an HR40 (concentration required to induce 40% histamine release), patient one of 0.02 µg/mL; an HR40 (concentration required to induce 40% histamine release), patient three of 0.01 µg/mL; an HR40 (concentration required to induce 40% histamine release), patient two of 0.018 µg/mL. Moreover, in experiment [1], the HR40, mean of four patients worked out at 0.0185 µg/mL and the Ratio AIC:Amb a 1 of HR40 stood at 62 fold.

B4: AIC-M (covalent conjugate of Amb a 1 and ISS-containing polynucleotide SEQ ID NO:1, medium extent of conjugation) (protein, ragweed, UniProt P27759 26-396, looked up)
chain: B1 chain
modifications: average of 3.5 to 4.5 oligonucleotides (5' thio ISS oligonucleotide, SEQ ID NO:1) per Amb a 1 molecule, linked through the heterobifunctional linker sSMCC; Amb a 1 blocked with N-ethyl maleimide before activation
For B4, in experiment [1], the HR40 (concentration required to induce 40% histamine release), patient four was determined as 0.07 µg/mL; the HR40 (concentration required to induce 40% histamine release), patient one was determined as 0.03 µg/mL; the HR40 (concentration required to induce 40% histamine release), patient three amounted to 0.03 µg/mL; the HR40 (concentration required to induce 40% histamine release), patient two is 0.028 µg/mL. In addition, in experiment [1], the HR40, mean of four patients came to 0.0395 µg/mL and the Ratio AIC:Amb a 1 of HR40 came to 132 fold. Besides, the ratio of AIC-M to Amb a 1 for 50% inhibition in experiment [3] stood at 3. The molecule also came in with a half-maximal inhibitory concentration (IC50) in experiment [2] of 0.12 µg/mL.
